Experimental data from patent US11760795B2, “Monoclonal antibodies to growth and differentiation factor 15 (GDF-15), and uses thereof for treating cancer cachexia and cancer” (JULIUS-MAXIMILIANS-UNIVERSITÄT WÜRZBURG, priority 2014, dated 2023).

What was measured:
[1] = test system: prostate cancer cell line LnCap; assay: Cancer cell proliferation, Alamar Blue metabolic assay; format: cell-based; conditions: after 72 hrs, compared with control group without antibody
From the text: The strongest antiproliferative effect was observed using the prostate cancer cell line LnCap, which produces lots of GDF-15.

[2] = Study No. 140123: body weight of UACC-257 inoculated mice (cancer-induced weight loss); format: in vivo, Balb/c^nu/nu mice; conditions: 38 days
Description: FIG. 5: Treatment of cancer cachexia with anti-GDF-15 antibodies. […] The changes of the body weight are depicted in percent as compared to the starting body weight on day 0, for a period of 38 days.
Treatment of cancer-induced weight loss with anti-GDF-15 antibodies. In the underlying animal study No. 140123, 10 Balb/c^nu/nu mice per treatment group were subcutaneously inoculated with 10×10^6 UACC-257 cells per animal in a 1:1 volume ratio with matrigel (100 μl cells+100 μl matrigel). The animals were treated on the same day with the respective antibodies, as indicated below:
The study was carried out in a double-blinded manner for the treatment with the antibodies and for the treatment with PBS.

[3] = target: T1, recombinant mature human GDF-15 protein derived from expression in E. coli (Homo sapiens, UniProt Q99988); assay: Surface plasmon resonance binding to recombinant GDF-15 derived from E. coli expression; conditions: SPR
T1 construct: recombinant mature human GDF-15 protein was immobilized on flow cells 1 and 2; made in house; host or cells: E. coli
T1 sequence (Q99988 195-308): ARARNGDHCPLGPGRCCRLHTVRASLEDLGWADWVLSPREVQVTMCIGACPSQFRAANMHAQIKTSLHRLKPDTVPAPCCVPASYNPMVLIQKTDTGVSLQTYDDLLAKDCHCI
From the text: For preparing the biosensors recombinant mature human GDF-15 protein was immobilized on flow cells 1 and 2. On one flow cell recombinant GDF-15 derived from Baculvirus-transfected insect cells (HighFive insect cells) and on the other recombinant protein derived from expression in E. coli was used. The GLC sensor chip was activated using Sulfo-NHS (N-Hydroxysulfosuccinimide) and EDC (1-Ethyl-3-[3-dimethylaminopropyl]carbodiimide hydrochloride) (Bio-Rad® ProteOn™ Amine Coupling Kit) according to the manufacturer's recommendation, the sensor surface was subsequently loaded with the proteins up to a density of about 600RU (1Ru=1 pg mm^−2). The non-reacted coupling groups were then quenched by perfusion with 1M ethanolamine pH 8.5 and the biosensor was equilibrated by perfusing the chip with running buffer ([…], 150 mM NaCl, 3.4 mM EDTA, 0.005% Tween® 20, pH 7.4, referred to as HBS150). […] The resulting sensogram was analyzed using the software ProteOn Manager version 3.0. […] For the association rate constant a value of 5.4±0.06×10^5 M^−1s^−1 (kon) and for the dissociation rate constant a value of 4.3±0.03×10^−4 s^−1 (koff) could be determined (values are for the interaction of anti-human GDF-15 mAb-B1-23 with GDF-15 derived from insect cell expression).

[4] = target: T2, human GDF-15 precursor on human cells (Homo sapiens, UniProt Q99988); assay: Staining experiments on human cells; format: cell-based
T2 construct: endogenous in cells
T2 sequence (Q99988 30-308 limits assumed): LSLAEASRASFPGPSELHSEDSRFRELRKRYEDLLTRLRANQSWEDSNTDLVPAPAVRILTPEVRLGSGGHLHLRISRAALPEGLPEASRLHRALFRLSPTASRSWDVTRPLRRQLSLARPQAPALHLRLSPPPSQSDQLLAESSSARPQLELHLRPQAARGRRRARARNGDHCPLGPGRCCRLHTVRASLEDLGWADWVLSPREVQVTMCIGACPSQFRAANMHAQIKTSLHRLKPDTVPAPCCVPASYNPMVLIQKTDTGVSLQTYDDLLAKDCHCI

[5] = test system: melanoma cell line UACC-257; assay: UACC-257 melanoma xenograft tumor growth in nude mice; format: in vivo, Balb/c^nu/nu nude mice; conditions: 25 mg/kg i.p. twice a week; 48 days; p<0.05
Description: FIG. 4: An anti-tumor effect of murine B1-23 in vivo. Balb/c^nu/nu nude mice were used in a xenograft setting with the melanoma cell line UACC-257. […] Significance was defined as p<0.05 as assessed by Wilcoxon's log-rank test.
To assess an anti-tumor effect of B1-23 in viva, Balb/c^nu/nu nude mice were used in a xenograft setting with the melanoma cell line UACC-257. The mice were treated either with the antibody B1-23 or with PBS. Each treatment cohort contained 10 Balb/c^nu/nu nude mice.
Prior to injection, the UACC-257 melanoma cells were grown in complete medium, excluding any contamination. […] Cells were then washed with PBS and counted. 1×10^7 viable cells were suspended in PBS.
The first injection/treatment was administered in 6 week old Balb/c^nu/nu nude mice. The inoculation area of the mice was cleaned with ethanol. The UACC 257 cells were mixed and drawn into a syringe without a needle, in order to avoid negative pressure on the tumor cells. […]
The intraperitoneal (i.p.) injection of either B1-23 (25 mg/kg body weight) or the same volume of PBS started immediately after the tumor cell inoculation (defined as day 1) and was administered twice a week. […] The tumor diameters were measured with a caliper and the tumor volume in mm^3 was calculated by the formula: Volume=(width)^2×length/2

[6] = test system: GDF-15 mediated downregulation of NKG2D on NK cells; assay: NKG2D surface expression on NK cells after GDF-15 treatment (flow cytometry); format: cell-based; conditions: 72 hours incubation
Description: FIG. 1: NKG2D Expression on NK Cells after Treatment with or without GDF-15. The cell surface expression of NKG2D was determined on NK cells after treatment with the indicated cytokines in the presence or absence of the anti-GDF-15 antibody mAb B1-23.
a) The NKG2D (Natural Killer Group 2D) receptor, which is expressed on NK cells and CD8+ T cells, is known to play an important role in the immune surveillance against tumors. Transformed as well as viral infected cells express ligands, which bind to the NKG2D receptor, thereby activating the cytotoxic effector functions of the described immune cells. In that way transformed cells can be detected and eliminated by the immune system.
After 72 hours incubation the immune cells were stained with the following FACS-antibodies: anti CD3, anti CD56, anti-NKG2D. Using this antibody combination, the experiment focused on NK cells and their NKG2D surface expression. The low NKG2D level on immune cells led to an impaired tumor/target cell lysis. The GDF-15 mediated downregulation of NKG2D was prevented by mAb B1-23.

B1: mAb-B1-23: murine IgG2a (kappa) monoclonal anti-human GDF-15 antibody produced by hybridoma cell line B1-23, DSM ACC3142 (antibody, V domains shown)
VH: QVKLQQSGPGILQSSQTLSLTCSFSGFSLSTSGMGVSWIRQPSGKGLEWLAHIYWDDDKRYNPTLKSRLTISKDPSRNQVFLKITSVDTADTATYYCARSSYGAMDYWGQGTSVTVSS
VL: DIVLTQSPKFMSTSVGDRVSVTCKASQNVGTNVAWFLQKPGQSPKALIYSASYRYSGVPDRFTGSGSGTDFTLTISNVQSEDLAEYFCQQYNNFPYTFGGGTKLEIKRTVA
With B1 the decrease of proliferation [1] was 30%, the “body weight change compared to day 0” value [2] was “increase in body weight” and the “deviation of rate constants, GDF-15 from insect cells vs E. coli” value [3] was “about 45%”. The “binding to the human GDF-15 precursor on human cells” value [4] was “capable of binding”, the “tumor size compared to the PBS control group” value [5] was “significantly decreased” and the “GDF-15 mediated downregulation of NKG2D” value [6] was “prevented”.
